Values quoted from earlier work, collected in PMC3899951.

How the values were obtained:
[1] = target: histone H4 K5,8,12,16ac peptide (Homo sapiens) (UniProt P62805)
[2] = target: histone H4 singly acetylated peptide (Homo sapiens) (UniProt P62805)

Kd [1]: 5 µM
Kd [2]: 39 µM
Substance: TAFII250 tandem bromodomain (from UniProt P21675)
